From article doi:10.1101/2025.10.09.681382

Target: Rubisco (Chlamydomonas reinhardtii (endogenous, purified from cells)) (UniProt P00877)
Assay: fluorescence correlation spectroscopy; 20 nM EPYC1-GFP mixed with 2 μM Rubisco (no phase separation at this concentration); diffusion coefficient of EPYC1-GFP from a single-species fit

“EPYC1-GFP, unphosphorylated (mock-treated) (natural protein)” gave a diffusion coefficient of EPYC1-GFP with Rubisco (60 μm^2/s without Rubisco) of 41 μm^2/s.
